We go through 2 molecules from PMC7806223, “Structures of Rhodopseudomonas palustris RC-LH1 complexes with open or closed quinone channels” (Science Advances, 2021).

Holding throughout (test): cryo-EM structure; RC-LH1_(14)-W complex purified from the PufW-His strain; in IMAC buffer (20 mM tris-HCl pH 8.0, 200 mM NaCl, 0.03% β-DDM); 2.65 Å
What all share (conditions): both partners purified

In one assay the target is T1, RC-L (PufL) (Rhodopseudomonas palustris CGA009, UniProt O83005 1-277).
T1 construct: reaction center L subunit (PufL) of Rhodopseudomonas palustris; also called subunit L; L polypeptide; source: endogenous, Rps. palustris CGA009 (ΔpufW and PufW-His strains); purified within RC-LH1 complexes from β-DDM-solubilized membranes

A further assay deals with T2, RC-M (PufM) (Rhodopseudomonas palustris CGA009, UniProt A0A4Z7 1-307).
T2 construct: reaction center M subunit (PufM) of Rhodopseudomonas palustris; also called subunit M; M polypeptide; source: endogenous, Rps. palustris CGA009 (ΔpufW and PufW-His strains); purified within RC-LH1 complexes from β-DDM-solubilized membranes

For assay [1], the target named is T3, protein-W (PufW), C-terminally 10× His-tagged (Rhodopseudomonas palustris CGA009, UniProt Q6N1K3 1-102).
T3 construct: protein-W (PufW, RPA4402) of Rhodopseudomonas palustris, a 10.5-kDa protein with three transmembrane helices; C-terminal amino acids are unresolved in the map; also called PufW-His; RPA4402; source: Rps. palustris CGA009 PufW-His strain, expressed from the native pufW locus; purified within RC-LH1_(14)-W (Ni-NTA IMAC, DEAE, SEC); not shown: 10× His, C-terminal, kept
T3 sequence: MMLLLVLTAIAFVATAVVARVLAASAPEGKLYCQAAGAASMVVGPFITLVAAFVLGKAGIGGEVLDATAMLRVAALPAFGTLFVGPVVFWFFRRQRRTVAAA

B1: RC-H (PuhA) (natural protein, Rhodopseudomonas palustris CGA009, UniProt A0A4Z9 1-255, looked up)
chain: MQPGAYLDLAQVTLYVFWIFFAGLLFYLRREDKREGYPLVADAGSGTRLAKIGVPAPPDPKTYLLRGGATKTVPSTSNDRPNVALTPAAPWPGAPFVPTGNPFADGVGPGSYAQRADVPELGLDNLPIIVPLRAAKGMFLDPRDPNPVGMPVVGCDGVVGGTVTEVWVDRAEVLARYLEVEVAKSRKRVLLPVPFALINDPFGKVSVDAIRGDQFAGVPTTSKGDQVSKLEEDKICAYYGAGTLYATPLRSESLV
notes: reaction center H subunit (PuhA) of Rhodopseudomonas palustris; C-terminal amino acids are unresolved in the map; also called subunit H; source: endogenous, Rps. palustris CGA009 (ΔpufW and PufW-His strains); purified within RC-LH1 complexes from β-DDM-solubilized membranes
Turning to B1, the binding result with RC-L (PufL) and with RC-M (PufM) was “binds” throughout.

B2: LH1-β (PufB) (natural protein)
chain: not shown
notes: LH1-β (PufB) of Rhodopseudomonas palustris; mass spectrometry of wild-type RC-LH1: residues Ser2 to Ala53; resolved Gly4 to Tyr52 in RC-LH1_(16) and Ser5 to Tyr52 in RC-LH1_(14)-W, no density for 13 C-terminal residues; 14 copies in RC-LH1_(14)-W, 16 copies in RC-LH1_(16); The termini were found by mass spectrometry on mixed complexes of the wild-type strain; also called β-polypeptide; source: …
Take B2: the binding result in assay [1] is “binds”.
